The nature of this data set: soluble on expression in E. coli; label from the status in PepcDB or PDB records.
In the case of “GSDHVDLREHVIDVPPQEVICKDNVVVTVDAVVYYQVIDPVKAVYNVSDFLMAIVKLAQTNLRAIIGEMELDETLSGRDIINARLREELDKITDRWGVKITRVEIQRIDPPKD”, the “soluble on expression in E. coli” value is “soluble”.

With “MSQRKAQNDYQKIIRSLSDRIVEAQTPIRVLDAIKWDDGIRQDFLKGRGKHAPKVDRGYYDSRPLAFDASAKKQEFQNIERDITRQLGQFNPVGQIMRRMCKEYRMVIRMLEARGTPDLGLISQELYGSASDAFHAGDPTLADLGLMLSDYLNNIADRGDLKDEPKTLTAKEVVPILQARLNTVFGEEEGTIRVFESDGIVADAAAGADYIKVRADALFNERDVRALEVHEGLVHVGTTLNGLSQPICTFLAKGPPSSTVTQEGLAILMEVIAFASYPTRLRKLTNRTRAIHMAEEGADFLDVFHFYREQGYSLEDSYQNASRVFRGSTPDGLPFTKDLSYLKGFILIYNYIQLAVRKGKLEQIPLLFCGKTTLEDMRTLRQLVDEGLVAPPKYLPPQFRDLNALSAWMCFSNFLNHLSLDRIEADYANILAAALEHHHHHH”, the “soluble on expression in E. coli” value is given as “not soluble”.

With “MSLSQPSFGLSNTATQGTLGQQSLVQPQNQQPQLAAQQLQSQQLSRYPQLIQEQILKCKESWDSNSYKTSLRSFVYNKVNETDAILYTKPTNVSQEEWDKAIENKPSSDLIPIQVFGFEGLNNRNQIQVENVAQARVILNQILDKTKQLQQSHSFETSARIMKVQARNAQIEKRILKLGTQLAILKNRRLPLTISEEKMWGQFQELLKSSNDPAGLGKTNELWARLAVLRERAKTISEQLDSKLVIIGEGHHHHHH”, the “soluble on expression in E. coli” value was “soluble”.

Turning to “MPRTHGYAPIGKRCHGKCNWHARGRINVIGALIGKCLLTVGLFKNNIDADTFLGWTIHDLLPKLPPASIVVMDNATFRKRQDIQNVITRGGHTLEYLPAYSPDLNPIEHKWAQTKAVRKQQNQTVEQLFKIESFYVTLEHHHHHH”, the “soluble on expression in E. coli” value is “soluble”.

As for “MGSDKIHHHHHHMPTLIERIHQVELGNLTQLDQLCHQLGLPYFLMGGSLLGAIRHQGFIPWDDDVDVGLLRADYDQLLAAAPTHLADSPYFLQTPTSDENYGLSYAKLLDRRTYIEEKRNVNNARKGIFIDIFPLDRIPQDTSAQQKQSTKFQLLNTRILLQLRYHLVDNPLRKLQGPLSSEQLTSVNALKAERQAVMTQYQAEITLPQVKNLSSQYAYAKEVFTVAELSDLTTVPFEHLQVQVPRNYATILTRMYGDYLALPPENQRTKKHLERVIMDNQVFTD”, the “soluble on expression in E. coli” value is “not soluble”.

Regarding “MATVKTVLVKGRCNSRGAYPLAVQVLHKRKKKVFYTGYSITPCEFDSFSGRVLFNGVYTMETVRRMNRTCRKICKILDKAIGILEREGNEYTTCDISRVYETLTGKVGFYSYFRERIRVLFDTGHEGTAKAYEATLHSMQKHLCKTDFPFAHLSSRLVIKYRDTLLEAGVGKNTIGFYLHNMKAVYRRGCLELNLVFPSPFCNIRIRSEKTVKQSLPMKQVKSLANLSLSVGTPECLARDVFMFSIYTRGMSFVDIAFLKKSDIFPGVIRYRRQKTGQLLEIGINRQIQNLLERYGDTSGDYLFPLVDESETPYSGYKKAYNRMRYALKKVS”, the “soluble on expression in E. coli” value is “not soluble”.

With “MPTPTTLSEWQLLAVLSKANLVQYYDVFIAQGGDDINQIMACEEREFLEIMNLVGMLPKPLHVRRMQRALAEYSQDQTAFNLAALQQIGPPPPLNYTPAGTDPMALLLPGIAAATSPKFPSLRFLSQLSSVAEKVSTPSEAADTSSSSPSLNLNTTSSNSVPLAFKFSTPLLESLASDQQSSSTSSVRSVLPSTSSNTSHPELPAGILPATTTNVSAAVPPPSSRATANVFSGNSIGLNFSGAASVTRHLVVPPSSTSIQQPSTSFGRSSSITGQEKEGSSSPFLGVGYSQPYGNDFVSLGDFDPNNPSLTENPTLSTAQISRLAECALAASKNLPPLPPRLVQNKKRVSKEVIELLKCSPATPSMIHAFRKYSAIYGRFDTKRKPHKVLTLHETTVNEAAAQLCLLVPSLLTRRDELFPLARQIVKDAGYNYAKSRKRPCDPADLHSPISSPGNSPPPQESEFDEQPSSSSGAFKEEERPPIPPEAWAAIIEKMKGELPES”, the “soluble on expression in E. coli” value was “not soluble”.

Consider “MRVKGPSSRRKKKKILKLAKGYRGQRSRSYRRAKEAVMRALYYQYRDRKLRKREFRRLWIARINAAVRAYGLNYSTFINGLKKAGIELDRKILADMAVRDPQAFEQVVNKVKEALQVQ”, for which the “soluble on expression in E. coli” value is listed as “soluble”.

As for “LYLEQSDIEGHIGVFGSTGSGKTTTLATIACGAAEAGLPVVVADWHGEYQRLVGGGGCRPRVIDPGREGGVNPLSLGWDYSVKTALLASALGLTEPQHYMLLKLLEEHEPRSLIELHSMVEDVEENSRWDREVKRGLMRRLGPLASRAGRSLVEGEGPPIGGRGLYIVDTGSIGNVQLRKTYSILLAAYLQYKAYSRELGPLLLVVDEAHNMFDGEESFPSIMMAESRKFGLYIALATQNPHLLPLRAVSNTNTKIVHSLRWWRDLESIASALSLPRETASKLPHLGRGEAVVYAPSLGYPVLAKIVPPE”, the “soluble on expression in E. coli” value is listed as “not soluble”.

On to “MSLTAAGRWRDVEMMAYKQDDAAPFRDVTRQLLFSDPRLACEWRYFEVAAGGYSTLEKHDHVHGVMIHRGKGQCLVGHHVSDVAVGDLVFIPPQTWHQFRANAGDVLGFLCLVNAERDREGHHHHHH”, for which the “soluble on expression in E. coli” value is on record as “not soluble”.

For “MEAKTMKDMQKEVDAYIGQFKEGYFSPLAMMARLTEEMGELAREVNHYYGEKPKKTTEKERSIEEELGDVLFVMICMANSLNIDLETAHNIVMNKFNTRDKDRWTRIDEGEKE”, the “soluble on expression in E. coli” value is recorded as “not soluble”.

“MADNDFLSGEAIMVFKKEILDSHSDFTRSLSHQSASPEAYDQENVFSQDFQPFMKQDKETQNSASQPTSEQSLANRDPCTVPDDLREEMMRQRRKEDAFKTALCDAYKRSQACSYGDQCRFAHGVHELRLPMNPRGRNHPKYKTVLCDKFSMTGNCKYGTRCQFIHKIVDGNAAKLASGAHANTSSKSPARNAAAHNHSLFVPQGSTDRSMDLNQSLPIRQSDLVRAFARATRLDVSGYNSTAQLAQYFESQFQRIQQLSSHHH”: the “soluble on expression in E. coli” value is “not soluble”.

Turning to “MAHHHHHHMKRSRFDGKAPSFAPAVTMHPQQQQRIEERGANNRVVVNSPYGCSRARYGWGMPFHTPLLAYVPGCPAIHIGISSLSGVPGRDRRMKTLFAQYAKKFNSLEHCYTFHNMGEETMWKNWRDMCASQLVASSSHSPASLGCVQTSDNGNQKSPPFIFSIKANQYLTHTRMLAIDDKSEEHIMHFFVNRCSILGRHLGPVLLQLPPQFQKNHVNMERIEAVAARIPKAFSVAVEFRHRSWYDEGVYALLRRLGWALVVAHHHDDPTASVHVDTGVDFMYVRLHGPIGLHIGDYGPVILSQWAERVVDYICGGVVSAAAADQSQPMAVNAHGREVYFFFNNSDSHVGGTTSSTVDATFLAQRVGELLAEKSRSCMVADSQSNSCSDVDVVTIISE”, the “soluble on expression in E. coli” value is reported as “soluble”.

As for “MRYGEKEIKEFDVENMEIWPNDAKNDYIIKITLPEFMCCCPRSGYPDFATIYLEYMPDKFVVELKAIKLYINTFMYRNVSHEASINEIYNTLKDKLKPKWIKVVGDFNPRGNVHTVIECRSDMVVPK”, the “soluble on expression in E. coli” value is “not soluble”.

Take “HPWRKGPFTVHDIHIDTEWRSDWKWDRLLPHITPLKNRSVLDVGCGNGYHMWRMLGEDARLCVGIDPSHLFLIQFEAIRKLMGNDQRAHLLPLGIEQLPELNAFDTVFSMGVLYHRRSPLDHLIQLKNQLVAGGELVLETLVIDGDENAVLMPVDRYAQMRNVYFFPSARALKVWLESVGFVDVKIVDECVTTTGEQRSTEWMKHNSLPEYLDPNDSTKTIEGHPAPKRAILIAKKPD”: the “soluble on expression in E. coli” value is recorded as “not soluble”.

With “MKKVITYGTFDLLHWGHIKLLERAKQLGDYLVVAISTDEFNLQKQKKAYHSYEHRKLILETIRYVDEVIPEKNWEQKKQDIIDHNIDVFVMGDDWEGKFDFLKDQCEVVYLPRTEGISTTKIKEEIAGL”, the “soluble on expression in E. coli” value is given as “soluble”.

For “MVALRGKEIDAFLARPDAGRPIVLLYGPDAGLVRERADALIASAVDDPNDPFSLVRLDGDELSAEPSRLVDEAMTVPLFGGQRAIRVRAGSRSFASGIDTLAEMGVKDCRIVIEAGELRPESPLRKACERAKTAVAIGCYPDTERDLAKLMDDELRIANLRIAQDARAALMSFLGGDRQASRNELRKLTLYAHGKGEITLEDVMAVVADASELKLDPIVDGAFAGRPDIVETEFAKAMIAGTYPGVIISAAQRQAAWLHKSALAIADGQPASAVLDGGFPRLHFSRKPAVETALRNFSVARLAAIIEQLATAALDTRKQSTLAAAIAQRTLMAIAANAKRRGLEHHHHHH”, the “soluble on expression in E. coli” value is reported as “not soluble”.

For “MGSDKIHHHHHHVDKFLYIAMSGAKQNLNSLSIRANNLANANTDGFKADLEQSRSMQAFGEGLPTRVFAMTENPQASFRHGPINSTARDLDVAVKGDGWIAVEDADGNEAYTRAGSLKFDETGLLTNSQGRPVMGDAGPIVLPLPIDKVEIAQDGTITVRPQGATAEVVEEVARIKLVNPGNQNLMRGDDGLFRMMNGTTAPQDETVALESRAVEGSNVNPVEEMVALIDIQRQFELQVKMMKTAEENDKASAQLVRIG”, the “soluble on expression in E. coli” value was “not soluble”.

As to “VKTGLYSLLGLIMRSALIDNFIESLNRSKYFHVVCSDPKPICNFIEKNLVRGATIVNAKGSFTGDNKYIILTVLSPSQAVKLRNFIKENSPGAFLLISNTSEIIGKGFHSV”, the “soluble on expression in E. coli” value is recorded as “not soluble”.

“MKKVLILGGGIAGVAAAIAFRKRGFEVEVVSDREFLFIYPIAIWIPVGTERFRNVAFPLEKVARKHGFSLTLDTVTAINASRDSVTLEKAGQRSDFDFLVIALGSDKMKHEGIEHTLSICGAPEHSIRLKEKIDALIERGHGKIAFGFGGNPKDPSAVRGGPGFELFFNLHHKLTKLGIRDNFEMTFFAPMAQPGAKMGQKALDMMAVMFKAKNFRQRYGKKITRFEVDGVVFEDGSKLESDLTMFIPAGSGHSVFRNSDLPLSEAGFVKIDDFCRVVGVDGWYAVGDSAALEGPEWKAKQGHIAEFMADCAANNCLAEHFGHQEPMRGYQEHLNVLCVMDTGDGAGFVYRTGHSEMFIPMPVVGHWLKKAWGYYYKLSKMKYIPRIPGMLEHHHHHH”: the “soluble on expression in E. coli” value was “soluble”.

As for “MIQDVIEKKLSDEFQPEFLKVINESDMHNVPRGSESHFKVTVVSERFAGLRPVARHRLVNQTLADELANHIHALAIHTYTTQEWQQMNQESPESPMCLGGSRKSAQ”, the “soluble on expression in E. coli” value is “not soluble”.

For the sequence “MSLKPDNLPVTFGKNDVEIIARETLYRGFSSLDLYRFRHRLFNGQMSHEVRREIFERGHAAVLLPFDPVRDEVVLIEQIRIAAYDTSETPWLLEMVAGMIEEGESVEDVARREAIEEAGLIVKRTKPVLSFLASPGGTSERSSIMVGEVDATTASGIHGLADENEDIRVHVVSREQAYQWVEEGKIDNAASVIALQWLQLHHQALKNEWAEGGSHHHHHH”, the “soluble on expression in E. coli” value is reported as “soluble”.

For “MGSDKIHHHHHHMNVAILGNQARAMVNFWSVFIARLQADGHTVVCIIPPGDAEGDAALTSMGVRVRHYPLDRKGLNPVRDVATFAALYRIFRQERPDRLFCFTIKPVIYGATAAALARVPGRVAMITGLGYMFEADTPVKRLLNRVAVLMYRAALACVHTVFFQNEEDRAVFTAKGIVPAGTEVAMSRGTGVALDHFAPAETVTAPVTFLLVGRLIEAKGLYEYAEAARMLKARHPEARFRVLGPPEQGLGSVPMETINQWHREGVIEYMGQTRDVRPFLREASVVVLPSWREGTPCSVMEGMSMARAAIVTDAPGCREVVEDGVNGFMVPLRSPEALAAAMERFIEDPSLVQRMGRAGRDLAEREFDAEKVAAHIMRVMRLDAAPRAGGNPQ”, the “soluble on expression in E. coli” value was “not soluble”.

On to “VPLPVPDFTASPMTISVGESVQFQDQTTNNPTNWEWTFEGGQPAMSTEQNPLVSYSHPGQYDVTLKVWNASGSNTITKEKFITVNAVMPVAEFVGTPTEIEEGQTVSFQNQSTNATNYVWIFDGGTPATSEDENPTVLYSKAGQYDVTLKAISASGETVKTKEKYITVKKAPVPA”, for which the “soluble on expression in E. coli” value is recorded as “not soluble”.

These data come from the DeepSol protein solubility set.
